Experiments:
human CCR8 (human) [1] = target: human CCR8 (human) (UniProt P51685); test: cell-based or functional assay
human CCR8 (human) [2] = target: human CCR8 (human) (UniProt P51685); test: binding affinity EC50, comparison of Table 12 (FACS on CCR8-expressing cells)

Sequence of human CCR8 (human) (P51685 whole entry): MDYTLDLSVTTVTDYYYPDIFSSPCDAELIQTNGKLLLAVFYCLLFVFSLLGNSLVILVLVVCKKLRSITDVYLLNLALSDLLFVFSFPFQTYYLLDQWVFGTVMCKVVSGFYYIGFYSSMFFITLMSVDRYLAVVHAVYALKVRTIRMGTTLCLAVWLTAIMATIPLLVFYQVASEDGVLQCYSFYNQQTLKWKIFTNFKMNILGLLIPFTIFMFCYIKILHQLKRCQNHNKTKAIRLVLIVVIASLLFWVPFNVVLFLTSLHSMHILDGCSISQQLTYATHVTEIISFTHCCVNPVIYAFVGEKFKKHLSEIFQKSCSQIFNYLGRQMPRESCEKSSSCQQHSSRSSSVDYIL

| Signal block Ca2+ (human CCR8 (human) [1]) | EC50 (human CCR8 (human) [2]) | Substance |
| --- | --- | --- |
| 4.34 nM | 0.29 nM | GS-1811 (antibody) |
|  | 0.243 nM | S-531011 (antibody) |

Source: US20240352134A1
